From the supplement of paper PMC9170038

Tested on: K4 kissing-loop RNA reporter
Assay: apparent KD of K4 kissing-loop reporter; higher = weaker reporter binding
Settings: Eterna round: R107
Experimental: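 RNA-MaP round R107: designed RNA switches with theophylline, tryptophan, arginine or FMN aptamers are transcribed on-chip within common flanks. They are titrated with a labelled K4 kissing-loop RNA reporter in RNA-MaP buffer (100 mM Tris pH 7.5, 80 mM KCl, 4 mM MgCl2), without ligand or with the indicated ligand. Median apparent KD per design.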

[1] = input ligand: theophylline 20 uM
[2] = input ligand: tryptophan 2.4 mM
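Also: bound reporter read as fluorescence of individual clusters on recovered sequencing chips by microscopy, with normalized cluster intensities fitted with a binding model.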

| Sequence | apparent KD of K4 kissing-loop reporter (input ligand: FMN 200 uM) [nM] | apparent KD of K4 kissing-loop reporter (input ligand: arginine 13.2 mM) [nM] | apparent KD of K4 kissing-loop reporter (input ligand: none) [nM] | apparent KD of K4 kissing-loop reporter [1] [nM] | apparent KD of K4 kissing-loop reporter [2] [nM] |
| --- | --- | --- | --- | --- | --- |
| UGUAAGCGCGUAGAUACCAGCAAACGAGUGAUGUUCAAAAGAUUAAGGAAAAGAAAGUAAUGCCCUUGGCAGCUAAUCAUAAGCG [whbob_Ex_Theo_B_sa91] | 304 | 316 | 449 | 397 | 247 |
| UUUAUAAAGUCGGCCGCCACUGGAUUUAUGUUUGUUUCGUCUGGAUCAAAGUGAUGUUUUGAGUCCAGGACCGGGACAUUUGUUA [whbob_Ex_Tryp_B_w38] | 88.9 | 74.8 | 81.2 | 73.5 | 113 |
| GCAGUGAUGUUGCGAAUCGGCCAUGAUGCAGAGGAUAUCGUGCCUUCGAGAAGGUUGUAUAGAGGAUACGAUACUAUUAAUGACG [Same State FMN A GF 6] | 395 | 356 | 714 | 413 | 329 |
| GCCGUACGCAUGGAUACCAGUUGCGAAGUGAUGUUUCGGGCGAUCAAAGGAUCGCCCUACAACCCUUGGCAGCCAUGCGUACGGC | 158 | 67.3 | 122 | 204 | 120 |
| AAAUCUUUCAGAAGGAGCGUGGAUUAUUCAUAUAUAUUUAUUACGAGUGAUGUUCGUAAUUCACAGGUAGGUCGCUGUUCAAUAA [JR_ExcArginiB_Sub005] | 117 | 116 | 113 | 116 | 102 |
| AGAGUUAUGCGAGGAUAUGCGGUUAGUACUCAAAGAGUACUAACGCAGAGUGAUGUUCUGUGAAACACAGAAGGUGCAUAACUCA [Omei KL FMN B SS B v2] | 950 | 116 | 249 | 205 | 148 |
| GUCCCGAGUGAUGUUCGGGUCGUUUGGGAAGGAGCGCCCGGAAGGGCAGGUAGGUCGCCCGGACCCUGCAGGUAACUGUUGGGCC [#2 Same State - Arginine A Attempt #19 (HarryS)] | 206 | 154 | 210 | 215 | 194 |
| UCUCGGGCCAGUGAUGUUGGCGGCUAGUGGCGAGGACCGGUACGGCCGCCACUCGGCGCAGCAGCGGAGUGAUGUUUCGUGAGUA [Same State Tryptophan A GF 17] | 363 | 301 | 377 | 441 | 198 |
| UGUACCGAGUUAGGAUAUGUCGUCGAAAGACGAAAUGGAGUGAUGUUCCUUAAACUGCGAAAGCAGACAGAAGGGAUUUGGUACU [FmnBS 29 U11+U77] | 331 | 442 | 412 | 510 | 378 |
| AAGUGUCAUUAGACACAGACUACAAUACGCUAGGAUAUGCUGAUAAGCAGAAGGAGUGAUGUUCCUUUCAAGUAGUCAAUUAAAU [FmnAX 22 Mat Inspired #SwitchBubble #StaticStem #K4Late] | 319 | 140 | 136 | 166 | 124 |
| ACCUACGAUCACAAUAGUGAUUGUAGGAACUAGGAUAUGCUGAAAAGCAGAAGGAGUGAUGUUCCAACUCAUGAAUAACAUGAGA [FmnAX 2 #OpenEnded #K4Late] | 536 | 252 | 249 | 274 | 198 |
| AGGCACGAGCAAGGAUAUCGAGUAGAGUGAUGUUCUGCCUGGGUUGGCGCGCAAGGGCCUUCCCAGCGAGAAGGUGCUCGUGCCU [#2 Same State - FMN A Attempt #11 (HarryS)] | 221 | 840 | 916 | 682 | 634 |
| AUUAAUAACUGAGGAUAUCGUUUUACUGUAGUGAUGUUACAGAAAGUUCAAAUUAUAAUUUCUAUUCGAGAAGGCAGAAUAAUUA [JR_SSFMNB_Sub026] | 77.7 | 68.9 | 53.5 | 62.8 | 48.1 |
| AAGUUGAACUGAAGGAGCGAGAAAUAGAAUGUAAGAAUAUAUGCUAGUGAUGUUAGAAAUUCUCAGGUAGGUCGCAGUAAGUUUU [V2] | 363 | 418 | 474 | 407 | 285 |
| UCCUGCAAUCUGCCACGAAAGUGGGUUGAUACCAGAGUCGAAAGACUCCCUUGGCAGCGAGUGAUGUUCGUUGCAGGUGAAUAAA [MatMod 9 - Jieux - Exclusion - Theophylline A] | 118 | 264 | 444 | 309 | 323 |
| GGCUUGCCAGUGAUGUUGGCAUAAACUGAAGGAGCGCGUGAAAACGCAGGUAGGUCGCAGAACCUUGCCAACUAUUUUAUUUGCC [Ex Arginine A K4 24] | 192 | 223 | 212 | 252 | 210 |
| GGUGACAACCAGAGGUGAUGUAUAGUAUCGCGAGGACCGGUACGGCCGCCACUCGUGAAGAGAAAGGAGUGAUGUUCCGUAAUGG [Kazoo C7] | 287 | 276 | 272 | 390 | 138 |
| AGAGGUCCCAGUGAUGUUGGUGCGUUUGGUCGAGGACCGGUACGGCCGCCACUCGUUCAUAGUAAGCCCUCUUUAGUGUUUCUAA [theeternabot_sameState_KL_Trp_A_9] | 544 | 336 | 428 | 551 | 186 |
| AAGUGUCAUUAGACACAGACUACAAUACACUAGGAUAUGCUGAUAAGCAGAAGGAGUGAUGUUCCUUUCAAGUAGUCAAUUAAAU [FmnAX 21 Mat Inspired #SwitchBubble #StaticStem #K4Late] | 237 | 148 | 143 | 178 | 140 |
| GUGCGCGGUGCGGCCGCCACUCGGAUGCGAGUGAUGUUCGCGGGACGGACGCAAGUCCGUCAUUCGAGGACCGGGCAUGGCUGCA [#2 Same State - Tryptophan B Attempt #6 (HarryS)] | 197 | 196 | 242 | 183 | 137 |
| GCCGCAAGGCUAGCAGCAAUAGGCGCUCGCUAGGAUAUCUGGAAACAGAGAAGGAGCUGGAGUGAUGUUUUACCUCCUUGUUAUU | 1000 | 735 | 950 | 814 | 657 |

| Sequence | apparent KD of K4 kissing-loop reporter (input ligand: FMN 200 uM) [nM] | apparent KD of K4 kissing-loop reporter (input ligand: arginine 13.2 mM) [nM] | apparent KD of K4 kissing-loop reporter (input ligand: none) [nM] | apparent KD of K4 kissing-loop reporter [1] [nM] | apparent KD of K4 kissing-loop reporter [2] [nM] |
| --- | --- | --- | --- | --- | --- |
| GUAGCACUUGAUAGUGAUGUUAUCAAGGACAAGGAUAUCAUCUCAAUGAGAAGGUGUCCUUGAUAACAGCUACGGGAAUAUCCCA [Omei KL FMN A Exc D v1] | 103 | 267 | 288 | 280 | 312 |
| UGGUGCCAUUGGCGGGUAGAUAGUGGUGGCAAGGAUAUGUGAGCGAACAGAAGGUGCAUCAAGUUCAGUGAUGUUGGGCUCGAUU [theeternabot_sameState_KL_FMN_A_20] | 264 | 184 | 275 | 254 | 234 |
| AAGUAGCUCUCGGCCGCCACUCCUCAGUGAUGUUGAGAUAUUAAUUGCCAAUUGGCGUAUUUAAAGAGGACCGGGAGAGCUACAA [AK3 SS Tryptophan B] | 368 | 315 | 378 | 328 | 117 |
| UUUCGGUUCUGAGGAUAUUCGGACAAAUAUAGUGAUGUUGUAUAAGGAGGAGGGUGUUGGCAGUGCGGAGAAGGCAGACCACGAU [ExFMNB.X] | 869 | 720 | 747 | 575 | 621 |
| AGGUCACCACUACAGUGAUGUUGUAGGGAGCAGGAUAUGCAGAAAUGCAGAAGGGCUCGCUCCCGGUGACCGAAUGAAACAUUCA [Omei KL FMN A SS A v6] | 432 | 258 | 318 | 289 | 282 |
| GGAUCCACCAGUGAUGUUGGAGAAAACUUCAAGGAUAUGACGAAAGUCAGAAGGUGGUAGACUGGACAAAGUCCGGUGGGAUCCA [FmnA10 U29+G78] | 622 | 214 | 264 | 566 | 198 |
| GGGAGUAGUGCGGCCGCCACUGAGAAAGAAGAAGAAUGUAGUGAUGUUAUGUAGGAAAGGAAGAACAGGACCGGGCAUUAGAUUU [SSTRyptB.H] | 478 | 443 | 354 | 840 | 497 |
| GAUUUAGAGGCGGCCGCCACUAGUGAUGUUAGUGAUGUUUGAUACUGUAUAUAUCGGCGUGUAGAUAGGACCGGGCCUGAUGGAG [drrdmullin] | 259 | 176 | 266 | 210 | 196 |
| UCUAACAAAUCGGCCGCCACUGAAAUAACCCAGGAGUGAUGUUCCAUCGUCCUAGACUACUCUUCCAGGACCGGGAUCUGUGUUC [theeternabot_exclusion_KL_Trp_B_25] | 298 | 348 | 529 | 472 | 284 |
| GAAUAAUAACAUGAGUGAUGUUCAUGUAAACGAGGACCGGUACGGCCGCCACUCGAACCUCAUGUAAGCCGUACCAAUAACAAUA [KL-XTryp-A4 #analogue] | 115 | 120 | 112 | 116 | 120 |
| UGGAGUUGACGAAAAGUCAACUCCUGAGAUACCAGUGACGAAAGUCACCCUUGGCAGCUCACUGGCAGUGAUGUUGCACGAUAAA [KL-SSTheo-A1] | 123 | 66.1 | 80 | 181 | 101 |
| GUUAUGGACCUGGAUACCAGCUGGUACAAGGUCGGUCUACAUGAGUGAUGUUCAUGUGUCAGCCCUUGGCAGCCAGCAACCGGCA [KL-XTheo-B10] | 90.3 | 97.1 | 101 | 119 | 86.2 |
| UUAGUCUAGAGAAGGAGCGAGUGAUGUUCGCAGCCCAAAUAAUAAUAAUAAUAAGGGCAUCCUCAGGUAGGUCGCUCUAGACAUU [AK5 Exc Arginine B] | 335 | 290 | 334 | 354 | 292 |
| UUAGUCAGAUUAUUAUUAGCCUGCGAGACUAAGGAUAUCCGAAUUCGGAGAAGGUAGUGAUGUUACUUUGGCAGGCACUGACAUU [AK8 Exc FMN A] | 890 | 611 | 727 | 643 | 576 |
| AAAGCAUUGAGAAGGAGCGUGACGUGGAGUGAUGUUCCAUUGUAGUAAUAAUUACUACUAUCACAGGUAGGUCGCUCAUUGCUAA [JR_Nu_SSArginiB_Sub024] | 183 | 159 | 181 | 161 | 180 |
| GUCCCGAGUGAUGUUCGGGUCGUUCGGGAAGGAGCGCCCGGAAGGGCAGGUAGGUCGCCCGGAUCCCUCAGGUAACUGAGGGACC [#2 Same State - Arginine A Attempt #25 (HarryS)] | 483 | 334 | 553 | 450 | 466 |
| UAAGAGUCUCUGCAAUUAGCAGAGACUCAACGAGGACCGGUACGGCCGCCACUCGGGUCCUAGAGUGAUGUUCUAAUAAUAUAAU [AK1.1 SS Tryptophan A] | 273 | 359 | 548 | 425 | 176 |
| GUCAUCAGAUCGCAAGAUCUGAUAGCCGAUACCAGCGCGAAGGUGCGCCCUUGGCAGCGGCACCGAGUGAUGUUCGGUCAGACGG [#2 Same State - Theophylline A Attempt #4 (HarryS)] | 658 | 796 | 776 | 440 | 594 |
| AAAUGCUUGUAUUUGAACAAUUCCUUUAGGGAGGAUAUUGGUAAUACAAGAAGGCCCUGAUGGGAGUGAUGUUCCCAUAACGCGG [Exclusion FMN A GF16] | 114 | 95 | 90.8 | 90.2 | 91.1 |
| AAGUGAUGUUGUAGUGAUGUUGUGAUGUUGCAGGAUAUAUAGUGAUGUAGAAGGGUAUGUGCAGUGUUGUUAUUUGAGUGUUGAU [zffdmullin] | 89.7 | 41.4 | 78.7 | 73.8 | 66.9 |
| AAUAAGCGCCGAAGGAGCGGCCUCCGAGUGAUGUUCGGUGAGAUGCCAGUGAUGUUGGCCGGCCAGGUAGGUCGCGGCAAAGCUU [Same State Arginine B GF 29] | 154 | 140 | 161 | 131 | 128 |
